Test system: Saccharomyces cerevisiae
Assay: transcriptional activation domain activity (GFP:mCherry ratio, weighted mean of sorted bins, harmonized to initial dataset scale) (arbitrary fluorescence ratio units); higher = stronger transcriptional activation
Details: beta-estradiol 1 µM; induction time 4 h
Procedure, shortened: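 In diploid yeast carrying a GFP reporter, barcoded protein tiles fused to an estradiol-inducible synthetic transcription factor were integrated at the URA3 locus. Cultures diluted 1:5 into SC with 1 uM beta-estradiol were kept at 30 °C for 4 hours, then sorted by GFP:mCherry ratio into 8 bins before barcode sequencing. Tiles with under 50 reads were excluded. The activation activity reported here is the read-weighted mean of bin median fluorescence, averaged across barcodes and linearly rescaled to the initial dataset.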

| Sequence | transcriptional activation domain activity |
| --- | --- |
| DETAPATEEASKEGEAAEEAAPAAEAEETKTEEAPNKEEGTKRRSASRKRVSI | 37200 |
| RAARARATPARPRPRASASRARGACRASTRGCRRRRSSSSSSRAGARMRATSA | 58600 |
| DSSFDLNMNLDLNLNLDSNFNIALNRSDSSGSTMNLDYKLPESANNYTYSSGS | 90700 |
| ICISILLIPGDLVTVFSRIGRSEAANIAFSIVLMPSMWSGYFWISLCYLSFWT | 52700 |
| RAKNRAKEEESAAQQKQAQHQQHQQHQQHRQGEEAGSAGRAEAAAAAAAAGAD | 26200 |
| TSTTPAGAPPADKPAGSLFGVKPAAAGSSSGGLFGQASNTSVAPSSIATTTAS | 28400 |
| GCDYVFSMYVLGAGLWLFIFYLPPIVFSIVCLCYLTLIWAVSWVLLWCLIFIL | 53900 |
| MNLILRCIWRVTKTIPRLIQTKSIKPDILLYDIHKFFVTVPPREWKRRATEFP | 55900 |
| AGDKPEKSKKDKKKEKEEKKKAAVAAEKEKQEKGDEAVAAAPSPVAAATPSLL | 29900 |
| DEEEAPEEGARGRRRKGRGKGKGKQGGGGEEEGGDGEEVEGEGEAEGEQENAG | 24000 |
| SEDERPRGGLKGRKGKKRVEREETSGGSDESSDEEGKRGKAKAGGKREVRTRS | 31900 |
| PSLYLVTFFRDSLEMIMISLKYFRYEAHKVVNILPILPDLYTIVRTLVNKCVR | 43700 |
| RGKQPYRWTIWIYLGTRYSCLLMFITFFILNHAGHALCKPLILMNYVFNIVSW | 41700 |
| MSLLWIYFLSFFPFFCQNLTLLCFYAHIWTLRITPTFVLAFHLVYPLIIHLPV | 27100 |
| VQLVLVLILVNILINILTFLILSHQGVMHTSCLYLFAYICARLCLGASLSGVW | 12800 |
| IWVAPWNAGKILFFLIRYLVFVDTSVSIVYLAGGPLTLSRCHTLFGWFTASFT | 74800 |
| LATTDLTHRQNGEEPIQNEIAKLFHSGGDSVVDILFSQTSATEFVTVGGTGNV | 64400 |
| CLLICIEYLTLSSLLDINVLLTTIVLHSLSLSSNLEVVRVVRRFFWVRCINLL | 47200 |
| RPDVVLIQAGLWARFWLFIVISHALLEYHTFADGICLCYVSTVVFLIRHAKLW | 68100 |
| MMNKTPGFLSLIPPFVIDLILLRCCLDPNISLNVTYRTLYFLMWFFQSVYLAV | 53200 |
| LGGNSGRATPGGGESRASTRKSKSKGAAKSRSRSPSRGRNRAGSKKKAGAAAT | 38700 |
| ESDILPRLLHAIRAELKEDISLKFAWRLYKLYLLCVYHLWKNVVLMIWYRRWI | 81700 |
| AAQKFVSDIAADAYQYARVRTNATTGGRSKAEKNAQGGSSAAAKDKSKTVLTL | 29700 |
| EQAEKEAAAEKATPKEAAAKEESPKEESPKEESPEKKEVKKPVKKTPTKKNAK | 27100 |
| SGGKTVLQGAFAGESGRISSGGPFGHGRGKEGQEQAIDNGRQRIARLAHGLRL | 23600 |
| FSVLFSKLFVWGILPYQTVGVVIQHTCQAVFLFVNIYWTFWRNWPWVQSGFFT | 80100 |
| AQPPAIEGKKSKKGEAPAAEVQKKEKKEKKPAEEGASKKGGSAKAAAAPAEDA | 9790 |
| PADDPQPAPATPKRRGRPPKNPKPAEEPKPAEEDPQPVPATTPKKRGRPPKAS | 26100 |

| Sequence | transcriptional activation domain activity |
| --- | --- |
| SAGYYSRVSFFFFSNYHLIILHVFFFFFFFVYWVYFSSSDFFFLLGLTIFCFF | 57900 |
| KIHLVNIAQVVVFFIYRLLYGLIPLFEIATCAYYPLLVSLWHLDYLLFYTVMF | 62800 |
| ENTRHRIFSIFRKSDLGLYALRGSQTLMNYSRVLGLLIRKWVITALRVCMWLG | 53000 |
| TDAAADAPKEDEVKEGEEKMETESTEEKKESESAEEKPAEETAASADTEMAEA | 25600 |
| GASAFGSAAQLGQKSSPWGSATSAVPSTGGAVFGSSGFGNAAPSAAPAFGKPS | 33200 |
| HDLLVDSLRLVMELLKAPGGLSVHALTAHLNILSFTVRLLDLCLDMALETPHH | 84900 |
| PKEDVQPEPEAQPAESVEAAPASEEQAPVEKTEEAPATEETEESRPSPPAARL | 37600 |
| EEGASQRANQRGKGEEGASQTANQRGKGEEGNQRRKGRKGAKGGRGRKGAKGG | 28500 |
| NCLKLGCDCLGMIHYFDGFICSHKGLPIKLENVICMHEQDNGLMWKHTHFRTN | 40800 |
| VALDHLYLDEEQTHAIKSLSSLYIKVVIIFIKYLLVHRKIKQRLVRSWAYCYD | 57900 |
| DRSRATEEEDGKSTKRSRARSRTFTFSKSDKGGDGSPSKKVRSTSKSRAKHDG | 31100 |
| MFYNAQFVDCGPSALVMVLVLLAPYLPNPLQLRRAFTTRPPTVLFAVLGILET | 61600 |
| GCLLPVTSCVFLAPFTLDFLWIPFLTHYLIILLCWYHLFSLRLLFCCSKSLPT | 57200 |
| MYHIVIIIPLCLLLFGPFILATDSPFCIVRHPFFFFFLFYQSFIAFTFFFFFT | 62700 |
| ITNGLYTGLGIKVPITKLQKYTPLEVALHSWRLVYMYFWSSFCLLIVCLIIFL | 65800 |
| EMGTLAALLWQPEIRDLTTYLRDIRVAVANVLDVFAMIEPSRLIAKIKIHLLA | 43100 |
| TYIPCDPLLTIVGGNVPFSSLGLRAFSLAMYSLLVIPGLNLVLPFLFFLLLHL | 92200 |
| MIHCMLLVGSTCPFFSLFLIAYFYDAIYDLAQFDMWSLLLCIYWDISPIFLFP | 48100 |
| ITVYMVIIIFCLFQFFLFLIIVGLVPRIDTTYFGWSCWGYGRIIFSWWISGSF | 34400 |
| DDLLVCVAQVVDICYSVFFWFPGIQFQPRPPPLPPIINLWASNILMYTILWIS | 60700 |
| IETLYRLVTTHSGQDYFIQSVHHGILLLNLLYMDIPYFTEWVGLSCQLYNVIT | 27700 |
| CLLLAICCLYHVAFCIIVVLFWVAQVNAAPMEALQMVLAHVRYTFILSVSMVG | 63500 |
| AETKCEGATTNHMKVEKREKKKRGEKAADKSKEERRSKRKEKQRKEGKTVRNG | 6970 |
| SSEYEIGRPSEEEVTMTRMLDKVLRRSDAVDKESLCILAGQRVWHLRLTLHCL | 45500 |
| MTCCLNLFCLLLINLIFFVCACCLLVFSLLAIQNKLPECILLPINIFKMLTIL | 52900 |
| LIFCVHMTVILFVILFCYLNRGFVPMTNGKYFYADFRISNTWGFITSLTLVLN | 38100 |
| ATLNLIFTIDLLNFSFWSELPEDERFCIEYRGKRWTGYWSLVAALQRALDEGV | 39000 |

Reference: the supplement of paper PMC12636428
